Test results reported in patent publication US20240084003A1 (SIMCERE ZAIMING PHARMACEUTICAL, published 2024).

T1: human CD22-ECD-His protein (human, UniProt P20273 20-687)
T1 construct: Recombinant, from HEK293E cells; also called hCD22-ECD-His; human CD22-His protein; not shown: His tag
T1 sequence: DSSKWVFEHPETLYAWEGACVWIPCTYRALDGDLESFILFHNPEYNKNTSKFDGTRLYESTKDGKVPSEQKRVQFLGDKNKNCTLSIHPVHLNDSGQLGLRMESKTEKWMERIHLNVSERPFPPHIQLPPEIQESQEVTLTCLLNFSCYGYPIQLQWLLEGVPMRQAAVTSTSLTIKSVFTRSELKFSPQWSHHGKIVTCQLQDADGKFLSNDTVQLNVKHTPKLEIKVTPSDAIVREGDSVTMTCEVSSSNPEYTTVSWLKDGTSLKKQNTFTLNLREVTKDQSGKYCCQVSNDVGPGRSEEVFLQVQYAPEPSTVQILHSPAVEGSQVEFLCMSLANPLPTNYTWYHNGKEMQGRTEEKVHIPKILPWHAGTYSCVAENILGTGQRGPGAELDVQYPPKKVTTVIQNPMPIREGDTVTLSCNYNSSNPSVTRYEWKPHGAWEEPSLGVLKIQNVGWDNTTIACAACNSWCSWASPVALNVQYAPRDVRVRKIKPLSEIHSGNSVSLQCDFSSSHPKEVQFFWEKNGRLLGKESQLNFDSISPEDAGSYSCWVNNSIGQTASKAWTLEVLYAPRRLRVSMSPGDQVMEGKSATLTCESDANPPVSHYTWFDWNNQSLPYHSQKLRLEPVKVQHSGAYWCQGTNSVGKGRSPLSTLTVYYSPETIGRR

T2: rhesus monkey CD22-ECD-His protein (rhesus monkey, UniProt H9G1X2 18-686)
T2 construct: extracellular domain; also called monkey CD22 protein
T2 sequence: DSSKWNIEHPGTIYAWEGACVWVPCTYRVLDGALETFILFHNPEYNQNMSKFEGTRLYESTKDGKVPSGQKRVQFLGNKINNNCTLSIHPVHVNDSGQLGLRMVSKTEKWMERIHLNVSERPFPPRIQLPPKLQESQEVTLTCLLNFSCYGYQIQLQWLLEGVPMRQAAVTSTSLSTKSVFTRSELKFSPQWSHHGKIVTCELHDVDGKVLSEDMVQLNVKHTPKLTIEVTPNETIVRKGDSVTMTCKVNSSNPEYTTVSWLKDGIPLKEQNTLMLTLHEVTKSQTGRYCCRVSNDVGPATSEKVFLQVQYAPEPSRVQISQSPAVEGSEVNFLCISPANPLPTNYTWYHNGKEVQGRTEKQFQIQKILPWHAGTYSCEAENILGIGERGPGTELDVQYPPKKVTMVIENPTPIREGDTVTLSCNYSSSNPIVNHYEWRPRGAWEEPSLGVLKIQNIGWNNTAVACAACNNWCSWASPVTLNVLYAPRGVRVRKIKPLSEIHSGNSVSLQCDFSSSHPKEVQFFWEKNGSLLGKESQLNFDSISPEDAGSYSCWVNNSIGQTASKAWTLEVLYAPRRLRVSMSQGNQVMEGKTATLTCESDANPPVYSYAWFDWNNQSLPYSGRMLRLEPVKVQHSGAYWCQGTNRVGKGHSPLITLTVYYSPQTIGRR

T3: human CD22 domain5-7-His (human, UniProt P20273 414-687)
T3 construct: also called hCD22 domain5-7-His; not shown: His tag
T3 sequence: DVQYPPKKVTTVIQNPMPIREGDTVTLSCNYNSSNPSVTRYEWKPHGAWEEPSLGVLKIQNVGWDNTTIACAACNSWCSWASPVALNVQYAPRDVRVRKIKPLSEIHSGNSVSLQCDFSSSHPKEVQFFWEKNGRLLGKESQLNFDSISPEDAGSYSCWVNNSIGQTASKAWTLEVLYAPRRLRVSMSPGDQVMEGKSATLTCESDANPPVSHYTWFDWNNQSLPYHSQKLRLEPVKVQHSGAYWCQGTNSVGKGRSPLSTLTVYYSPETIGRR


Experiments:
[1] = molecular target: T1, human CD22-ECD-His protein; assay: SPR (Biacore), antibody captured on Protein A chip, CD22-ECD-His in solution
Experimental: Sample buffer and running buffer were HBS-EP+(10 mM HEPES, 150 mM NaCl, 3 mM EDTA, 0.05% surfactant P20) (GE Healthcare; BR-1006-69). The flow-through cell was set to 25° C. The sample block was set to 16° C. Both were pretreated with the running buffer. In each cycle, the antibody to be tested was first captured with a Protein A chip, then a single concentration of CD22 antigen protein was injected. The binding and dissociation process of the antibody and the antigen protein was recorded, and finally Glycine pH 1.5 (GE Healthcare; BR-1003-54) was used to complete chip regeneration. Binding was measured by injecting different concentrations of recombinant human CD22-ECD His protein in solution for 240 s with a flow rate of 30 μL/min. The concentration started from 200 nM (see the detailed results for the actual concentration in the test) and was diluted at 1:1, making a total of 5 concentrations. The dissociation phase was monitored for up to 600 s and was triggered by switching from sample solution to running buffer. The surface was regenerated by washing with a 10 mM of glycine solution (pH 1.5) for 30 s at a flow rate of 30 μL/min. Bulk refractive index difference was corrected by subtracting the response obtained from the goat anti-human Fc surface. Blank injection was also subtracted (=double reference). For calculation of apparent KD and other kinetic parameters, Langmuir 1:1 model was used.

[2] = molecular target: T2, rhesus monkey CD22-ECD-His protein; assay: SPR (Biacore), antibody captured on Protein A chip, rhesus CD22 in solution
[3] = molecular target: T3, human CD22 domain5-7-His; assay: ELISA, plate coated with human CD22 domain5-7-His

| Kd [1] [nM] | koff [1] [s⁻¹] | kon [1] [M⁻¹ s⁻¹] | Kd [2] [nM] | koff [2] [s⁻¹] | kon [2] [M⁻¹ s⁻¹] | binding result [3] | Binder |
| --- | --- | --- | --- | --- | --- | --- | --- |
| 2.07 | 0.000498 | 241000 | 3.67 | 0.000531 | 144000 | no binding | F1.17.1 (antibody, human IgG1, kappa, V domains shown, Chimeric IgG1 kappa) VH: QVQLKESGPGLVAPSQSLSITCTVSGFSLSRYTVHWVRQPPGKGLEWLGMIWGGGSTDYNSALKSRLSISKDNSKSQVFLKMNSLQTDDTAMYYCARPHDFDAGGFAYWGQGTLVTVSA VL: QIVLTQSPAILSTSPGEKVTMTCSASSRVNYMYWYQQKPGSSPRLLIYDTSNLASGVPVRFSGSGSGTSYSLTISRMEAEDAATYYCQQWTSYPLTFGAGTKLELKR |
| 25.3 | 0.000944 | 37300 | 7.18 | 0.000538 | 74900 | no binding | F1.216.2 (antibody, human IgG1, kappa, V domains shown, Chimeric IgG1 kappa) VH: QVQLQQSGPEVVRPGASVKISCKASGYAFSSSWMNWMKQRPGKALEWIGRIYPGDGDTNYSGEFKVKATLTADKSSSTAYMQLSSLTSEDSAVYFCAREGSYYSNPWYFDYWGQGTTLTVSS VL: DVLVTQTPLSLPVSLGDQASISCRSSQSIVQSNGDTYLEWYLQKPGQSPKLLIYKVSNRFSGVPDRFSGSGSGTDFTLKISRVEAEDLGVYYCFQGSHVPFTFGSGTKLEIKR |
| 40.9 | 0.000223 | 5440 | 2.25 | 6e-05 | 26700 | no binding | F1.267.9 (antibody, human IgG1, kappa, V domains shown, Chimeric IgG1 kappa) VH: EVQLQQSGPVLVKPGASVKMSCKASGYTFTDFYMNWAKQSHGKSLEWVGVINPYNGGINYNQKFKGKATLTVDKSSSTAYMEFNSLTSEDSAVYYCARRMEYHAMDYWGQGTSVTVSS VL: DIVLTQSPASLAVSLGQRATISCRASESVDNYGFDFIHWYQQKPGQPPKLLIYRASNLESGIPARFSGSGSRPDFTLTINPVETDDVATYYCQQSIKDPWTFGGGTKLEIKR |
| 13.8 | 0.000267 | 19400 | 2.04 | 0.000107 | 52300 | no binding | F1.224.1 (antibody, human IgG1, kappa, V domains shown, Chimeric IgG1 kappa) VH: EVLLHQSGPELVKPGASVKISCKASGYTFTDFNMDWVRQRHGQSLEWIGDVNPNNGGTIYNQKFKGKATLTVDKSSSTVYMDLRSLTSDDTAVYYCVRLGTSDYGEAWFISWGQGTVVTVSA VL: DIVLTQSPASLAVSLGQRATISCRASQSVSTPRYSFMHWYQQKPGQPPKLLIKYASNLESGFPARFTGSGSGTDFTLNIHPVEEEDTAAYYCQQSWAIPWTFGGGTKLEIKR |
| 10.7 | 0.000744 | 69500 | – | – | – | no binding | F2.70.2 (antibody, human IgG1, lambda, V domains shown, Chimeric IgG1 lambda) VH: EVQLVESGGGLVKPGGSLKLSCAASGFTFSDYGMNWFRQAPEKGLEWVAYISRGSHTIYYADTVKGRFTISRDNAKNTLFLQMTSLRSNDTAMYYCVRMAGYYAMDYWGQGTSVTVSS VL: QLVLTQSSSASFSLGASAKLTCTLSSQHSSYIIEWYQQQPLKPPKYVMELKKDGSHSTGDGIPDRFSGSSSGADRYLSISNIQPEDEAIYICGVGDTIKEQFVYVFGGGTKVTVLG |
| 8.54 | 0.00061 | 71400 | – | – | – | no binding | F2.104.10 (antibody, human IgG1, lambda, V domains shown, Chimeric IgG1 lambda) VH: EVQLVESGGGFVKPGGSLKLSCAASGFTFSDYGMNWFRQAPEKGLEWVAYISRGSHTIYYADTVKGRFTISRDNAENTLFLQMTSLRSNDTAMYYCVRMAGYYAMDYWGQGTSLTVSS VL: QLVLTQSSSASFSLGASAKLTCTLSSQHSSYIIEWYQQQPLKPPKYVMEVKKDGSHSTGDGIPDRFSGSSSGADRYLSISNIQSEDEAIYICGVGDTIKEQFVYVFGGGTKVTVLG |
| 2.93 | 0.00066 | 226000 | – | – | – | no binding | F2.127.11 (antibody, human IgG1, lambda, V domains shown, Chimeric IgG1 lambda) VH: QVTLKESGPGILQPSQTLSLTCSFSGFSLSTFGMGVGWIRQPSGKGLEWLAHIWWDDDKHYNPALKSRLTISKDTSRNQVFLKIANVDTADGATYFCARDNWVSSLDYWGQGTSVIVSS VL: QPVITQSSSASFSLGASAELTCTLSSQHSTYTIEWYQQQPLKPPKYVMGLKKDGSHSTGDGIPDRFSGSSSGADRYLSISNIQPEDEAIYICGVSDTIKEQFVYVFGGGTKVTVLG |
| 0.586 | 7.42e-05 | 127000 | – | – | – | no binding | F2.55.1 (antibody, human IgG1, lambda, V domains shown, Chimeric IgG1 lambda) VH: QVTLKESGPGILQPSQTLSLTCSFSGFSLSTFPLGVGWIRQPSGKGLEWLAHVWWNDDDYYNPALKSRLTISKDTSNTRVFLSVASVDTAETATYYCARLNWDRWYFDVWGTGTTVTVSS VL: QLVLTQSSSASFSLGASAKLTCTLSSQHSAYTVEWYQQQPLKPPKYVMELKKDGSHSTGDGIPDRFSGSSSGADRYLSISNIQPEDEAIYICGVGDTVKEQFVFGGGTKVTVLG |
| 10 | 0.000663 | 66100 | – | – | – | no binding | F2.42.9 (antibody, human IgG1, lambda, V domains shown, Chimeric IgG1 lambda) VH: QVTLKESGPGILQPSQTLSLTCSFSGFSLSTFDRGVGWIRQPSGKGLEWLAHIWWNDKKFYNPVLKSRLTISKDTSKNQVFLTIANVDSADTATYSCARIVWDKYYFDYWGQGIPLTVSS VL: QLVLTQSSSASFSLGASAKLTCTLSSQHSAYTIEWYQQQPLKPPKFVMDLKKDGSHSTGDGIPARFSGSSSGADRYLTISNIQPEDEAIYICGVGDTIKEQYVFGGGTKVTVLG |
| 80 | 0.000393 | 4910 | – | – | – | no binding | F2.121.9 (antibody, human IgG1, lambda, V domains shown, Chimeric IgG1 lambda) VH: EVQLVESGGGLVKPGGSLKLSCAASGFTFSDYVMSWIRQTPEKRLEWVATISDAGSYTFYPDNLKGRFTISRDNAKNNLYLQMNHLTSEDTAFYYCAIIYFGNYGGYWGQGTLVTVSV VL: QAVVTQESALTTSPGGTVVLTCRSNTGAVTTSNYANWVQEKPDHLFTGLIGGTSNRAPGVPVRFSGSLIGDKAALTITGAQTEDDAMYFCALWYSTHWVFGGGTKLTVLG |
| 4970 | 0.101 | 20400 | – | – | – | no binding | F2.343.16 (antibody, human IgG1, lambda, V domains shown, Chimeric IgG1 lambda) VH: QVQLKQSGPGLVQPSQSLSITCTVSGFSLTGYGVQWVRQSPGKGLEWLGVIWGGGGTDYNAAFISRLNIIKDNSKSQVFFKMNSLQADDTAIYYCARYSKYGHFDVWGTGTAVTVSS VL: QAVVTQESALTTSPGETVTLTCRSSTGAVTTSNYANWVQEKPDHLFTGLIGGTYNRVPGVPARFSGSLIGDKAALTITGAQTEDEAIYFCALWYSNHFWVFGGGTKLTVLG |
